According to PMC12120064:

Legend:
Test in all cases: CEACAM1 co-IP (PLA also mentioned)
Details in all cases: reference: full-length 4L CEACAM1; sites Y493,Y520
SHP-1 = SHP-1 (UniProt P29350)
SYK = SYK (UniProt P43405)
filamin A (FLNA) = filamin A (FLNA) (UniProt P21333)

- binding against the reference (SHP-1): weaker
- binding against the reference (SYK): weaker
- binding against the reference (filamin A (FLNA)): weaker
Substance: CEACAM1 (CEACAM1-4L) (from UniProt P13688) Y493F/Y520F
